# Biological target: Flt1/VEGFR1 (human) (UniProt P17948)
# Assay: cell-based or functional assay
# Sequence of UniProt P17948 (P17948 27-1338): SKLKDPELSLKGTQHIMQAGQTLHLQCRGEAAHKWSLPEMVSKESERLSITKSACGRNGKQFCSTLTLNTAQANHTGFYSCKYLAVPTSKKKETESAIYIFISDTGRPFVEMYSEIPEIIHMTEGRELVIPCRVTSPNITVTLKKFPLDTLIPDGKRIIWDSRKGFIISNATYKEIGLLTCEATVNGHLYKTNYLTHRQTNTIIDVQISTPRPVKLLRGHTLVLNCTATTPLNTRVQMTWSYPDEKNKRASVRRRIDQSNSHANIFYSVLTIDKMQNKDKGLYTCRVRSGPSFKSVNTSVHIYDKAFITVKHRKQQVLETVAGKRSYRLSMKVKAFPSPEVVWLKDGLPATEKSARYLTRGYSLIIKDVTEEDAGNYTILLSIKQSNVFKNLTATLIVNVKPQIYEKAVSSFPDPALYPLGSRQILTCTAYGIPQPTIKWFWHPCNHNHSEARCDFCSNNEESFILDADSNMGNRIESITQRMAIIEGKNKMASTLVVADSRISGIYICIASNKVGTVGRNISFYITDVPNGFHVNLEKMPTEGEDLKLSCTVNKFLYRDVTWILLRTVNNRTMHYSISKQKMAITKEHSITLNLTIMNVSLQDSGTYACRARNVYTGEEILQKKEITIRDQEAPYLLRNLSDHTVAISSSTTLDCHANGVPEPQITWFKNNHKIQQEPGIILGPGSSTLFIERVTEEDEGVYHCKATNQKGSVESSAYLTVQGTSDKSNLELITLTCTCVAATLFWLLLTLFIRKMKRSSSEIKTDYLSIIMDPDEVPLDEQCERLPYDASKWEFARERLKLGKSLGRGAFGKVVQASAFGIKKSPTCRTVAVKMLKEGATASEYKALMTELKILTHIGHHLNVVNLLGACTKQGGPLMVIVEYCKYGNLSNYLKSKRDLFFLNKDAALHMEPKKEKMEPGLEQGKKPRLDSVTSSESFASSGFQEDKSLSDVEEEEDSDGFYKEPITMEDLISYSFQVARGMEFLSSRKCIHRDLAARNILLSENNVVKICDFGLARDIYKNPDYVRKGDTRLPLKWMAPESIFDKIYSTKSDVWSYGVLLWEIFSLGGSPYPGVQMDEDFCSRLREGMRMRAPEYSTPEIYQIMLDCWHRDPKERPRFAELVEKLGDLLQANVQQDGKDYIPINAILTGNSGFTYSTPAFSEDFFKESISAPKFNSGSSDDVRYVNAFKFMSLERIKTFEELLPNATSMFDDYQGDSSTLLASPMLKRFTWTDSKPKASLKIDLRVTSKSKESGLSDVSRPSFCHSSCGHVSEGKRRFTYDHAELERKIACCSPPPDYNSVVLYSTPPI
substance,measurement,value
placental growth factor (ligand),HUVEC buds containing multiple filopodia,250%

# — patent US20110223183A1
